The values below come from patent US20210032365A1 (Chugai, published 2021).

T1: human C1s (human, UniProt P09871 16-688)
T1 construct: also called hC1s; serum-derived human C1s (CompTech)
T1 sequence: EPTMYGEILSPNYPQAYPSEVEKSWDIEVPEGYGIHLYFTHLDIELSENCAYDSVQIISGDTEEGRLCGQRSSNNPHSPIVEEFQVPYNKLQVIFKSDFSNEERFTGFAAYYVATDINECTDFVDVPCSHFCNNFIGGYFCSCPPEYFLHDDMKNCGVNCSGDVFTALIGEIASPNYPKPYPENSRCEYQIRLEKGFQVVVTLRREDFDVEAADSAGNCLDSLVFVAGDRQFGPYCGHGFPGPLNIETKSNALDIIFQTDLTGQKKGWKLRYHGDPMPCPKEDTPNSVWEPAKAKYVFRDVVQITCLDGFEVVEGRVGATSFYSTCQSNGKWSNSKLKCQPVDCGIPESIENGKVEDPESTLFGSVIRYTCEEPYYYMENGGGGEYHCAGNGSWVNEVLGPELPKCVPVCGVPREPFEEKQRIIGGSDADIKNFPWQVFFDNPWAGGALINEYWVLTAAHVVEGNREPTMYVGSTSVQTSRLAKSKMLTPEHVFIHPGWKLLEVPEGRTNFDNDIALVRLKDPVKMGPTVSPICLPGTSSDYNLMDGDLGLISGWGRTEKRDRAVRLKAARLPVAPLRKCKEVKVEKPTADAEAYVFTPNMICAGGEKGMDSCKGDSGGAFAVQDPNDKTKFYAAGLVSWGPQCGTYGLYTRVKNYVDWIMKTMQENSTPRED

T2: human C1s (human, UniProt P09871 16-688)
T2 construct: Analyte in the Biacore assays; also called hC1s; serum-derived human C1s (CompTech)
T2 sequence: T1 sequence

B1: C1_IPN009VH2-SG4GK/IPN93L0021-SK1 (antibody, human IgG4 S228P, kappa, name in Kabat numbering)
heavy: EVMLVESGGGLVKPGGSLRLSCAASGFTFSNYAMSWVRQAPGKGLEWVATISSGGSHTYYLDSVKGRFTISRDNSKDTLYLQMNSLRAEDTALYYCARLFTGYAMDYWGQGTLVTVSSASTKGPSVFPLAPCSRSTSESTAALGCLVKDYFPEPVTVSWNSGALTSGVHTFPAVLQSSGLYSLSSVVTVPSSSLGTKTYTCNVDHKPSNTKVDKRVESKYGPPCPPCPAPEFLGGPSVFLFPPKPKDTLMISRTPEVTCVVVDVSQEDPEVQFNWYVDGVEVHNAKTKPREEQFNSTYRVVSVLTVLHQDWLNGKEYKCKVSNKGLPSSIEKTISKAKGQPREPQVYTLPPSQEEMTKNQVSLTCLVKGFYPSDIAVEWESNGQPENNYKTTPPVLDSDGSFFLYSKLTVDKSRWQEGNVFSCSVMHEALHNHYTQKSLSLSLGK
light: QIVLTQSPATLSLSPGERATLSCTASSSVSSSYLHWYQQKPGKAPKLWIYSTSNLASGVPSRFSGSGSGTDYTLTISSLQPEDFATYYCHQYHRLPPITFGQGTKLEIKRTVAAPSVFIFPPSDEQLKSGTASVVCLLNNFYPREAKVQWKVDNALQSGNSQESVTEQDSKDSTYSLSSTLTLSKADYEKHKVYACEVTHQGLSSPVTKSFNRGEC
notes: also called IPN009VH2/IPN93L0021
B2: C1_IPN009VH2-SG4GK/IPN93L0023-SK1 (antibody, human IgG4 S228P, kappa, name in Kabat numbering)
heavy: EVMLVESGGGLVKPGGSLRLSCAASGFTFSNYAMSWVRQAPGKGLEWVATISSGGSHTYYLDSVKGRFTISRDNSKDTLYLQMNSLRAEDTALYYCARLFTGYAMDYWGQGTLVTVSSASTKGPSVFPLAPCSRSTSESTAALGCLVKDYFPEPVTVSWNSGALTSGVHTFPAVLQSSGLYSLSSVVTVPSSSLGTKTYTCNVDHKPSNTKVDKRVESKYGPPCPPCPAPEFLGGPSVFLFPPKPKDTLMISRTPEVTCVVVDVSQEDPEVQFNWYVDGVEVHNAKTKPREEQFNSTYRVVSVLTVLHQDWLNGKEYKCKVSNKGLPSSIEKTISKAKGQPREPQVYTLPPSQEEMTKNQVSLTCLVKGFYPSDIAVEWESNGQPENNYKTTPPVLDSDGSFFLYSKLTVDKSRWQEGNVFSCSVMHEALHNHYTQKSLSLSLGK
light: B1 light with H93Y, L95H
notes: also called IPN009VH2/IPN93L0023
B3: C1_IPN92H0026-SG4GK/IPN009VK3-SK1 (antibody, human IgG4 S228P, kappa, name in Kabat numbering, V domains shown)
VH: EVMLVESGGGLVKPGGSLRLSCAASGFTFSNYAMSWVRQAPGKGLEWVATISSGGSHTYYLDSVKHRFTISRDNSKDTLYLQMNSLRAEDTALYYCARLFTGYAMDYWGQGTLVTVSS
VL: QIVLTQSPATLSLSPGERATLSCTASSSVSSSYLHWYQQKPGKAPKLWIYSTSNLASGVPSRFSGSGSGTDYTLTISSLQPEDFATYYCHQYYRLPPITFGQGTKLEIKR
notes: also called IPN92H0026/IPN009VK3
B4: C1_IPN92H0033-SG4GK/IPN009VK3-SK1 (antibody, human IgG4 S228P, kappa)
heavy: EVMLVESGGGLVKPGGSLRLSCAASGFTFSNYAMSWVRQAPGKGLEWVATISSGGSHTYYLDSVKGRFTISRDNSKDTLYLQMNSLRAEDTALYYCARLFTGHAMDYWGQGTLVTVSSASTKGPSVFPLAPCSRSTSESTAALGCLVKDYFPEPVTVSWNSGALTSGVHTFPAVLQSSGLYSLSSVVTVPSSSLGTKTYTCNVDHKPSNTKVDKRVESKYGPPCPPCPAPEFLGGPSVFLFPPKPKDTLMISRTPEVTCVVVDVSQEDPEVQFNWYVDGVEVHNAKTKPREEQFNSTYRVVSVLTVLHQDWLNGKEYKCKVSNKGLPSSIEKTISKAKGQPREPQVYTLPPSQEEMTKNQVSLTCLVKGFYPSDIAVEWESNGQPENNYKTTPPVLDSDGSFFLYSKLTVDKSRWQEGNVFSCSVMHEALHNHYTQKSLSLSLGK
light: B1 light with H93Y
notes: VH = IPN009VH2 with Y99H (Kabat); also called IPN92H0033/IPN009VK3
B5: C1_IPN009VH2-SG4GK/IPN93L0024-SK1 (antibody, human IgG4 S228P, kappa)
heavy: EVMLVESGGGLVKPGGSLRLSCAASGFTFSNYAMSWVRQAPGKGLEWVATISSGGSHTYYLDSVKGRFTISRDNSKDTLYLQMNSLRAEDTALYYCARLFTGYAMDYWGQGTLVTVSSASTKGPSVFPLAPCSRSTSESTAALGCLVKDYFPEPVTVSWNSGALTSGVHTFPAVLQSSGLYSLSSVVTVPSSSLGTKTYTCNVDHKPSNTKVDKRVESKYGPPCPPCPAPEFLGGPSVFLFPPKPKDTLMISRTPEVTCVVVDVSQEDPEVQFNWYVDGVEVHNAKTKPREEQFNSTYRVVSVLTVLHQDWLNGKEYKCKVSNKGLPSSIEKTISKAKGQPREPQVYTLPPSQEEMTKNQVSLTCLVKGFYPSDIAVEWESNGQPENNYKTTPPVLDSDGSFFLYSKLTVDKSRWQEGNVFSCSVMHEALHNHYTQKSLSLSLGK
light: B1 light with H93Y, P96H
notes: VL = IPN009VK3 with P95H (Kabat); also called IPN009VH2/IPN93L0024
B6: IPN92H0288/IPN93L0211-SG136 (antibody, human IgG1, kappa)
heavy: EVMLVESGGGLVKPGGSLRLSCAASGFTFSNYAMSWVRQAPGKGLEWVATISSGGSHTYELDSVDGRFTISRDNSKDTLYLQMNSLRAEDTALYYCARLFTKHAMDYWGQGTLVTVSSASTKGPSVFPLAPSSKSTSGGTAALGCLVKDYFPEPVTVSWNSGALTSGVHTFPAVLQSSGLYSLSSVVTVPSSSLGTQTYICNVNHKPSNTKVDKKVEPKSCDKTHTCPPCPAPELRRGPSVFLFPPKPKDTLMISRTPEVTCVVVDVSHEDPEVKFNWYVDGVEVHNAKTKPREEQYNSTYRVVSVLTVLHQDWLNGKEYKCKVSNKGLPSSIEKTISKAKGQPREPQVYTLPPSREEMTKNQVSLTCLVKGFYPSDIAVEWESNGQPENNYKTTPPVLDSDGSFFLYSKLTVDKSRWQQGNVFSCSVMHEALHNHYTQKSLSLSP
light: B1 light with S28E, S31E, H93Y, P96H, S173C
notes: also called IPN92H0288/IPN93L0211 (lot PPU2049)
B7: IPN92H0307/IPN93L0058-SG136 (antibody, human IgG1, kappa)
heavy: B6 heavy with T28E, S30E
light: B1 light with S28E, H93Y, P96H, S173C
notes: also called IPN92H0307/IPN93L0058 (lot PPU2051)

Numbering of substitutions follows the chain as printed. Names and notes keep the numbering of the source.

The first assay has as its target T1, human C1s. Put plainly: SPR, Ab captured; pH 5.8, 3 uM Ca. As for the experimental part:
(§1) All variants were transiently expressed and purified by the method described above. The binding affinity of each histidine-substituted variant at pH 7.4 and pH 5.8 was determined at 37 degrees C. using Biacore T200 instrument (GE Healthcare). Recombinant Protein A/G (Pierce) was immobilized onto all flow cells of a CM4 sensor chip using an amine coupling kit (GE Healthcare). Antibodies and analytes were prepared in 7(+) buffer (20 mM ACES, 150 mM NaCl, 1.2 mM CaCl2, 0.05% Tween 20, 0.005% NaN3, pH 7.4), 5(+) buffer (20 mM ACES, 150 mM NaCl, 1.2 mM CaCl2, 0.05% Tween 20, 0.005% NaN3, pH 5.8), or 5(−) buffer (20 mM ACES, 150 mM NaCl, 3 micro M CaCl2, 0.05% Tween 20, 0.005% NaN3, pH 5.8). Each antibody was captured onto the sensor surface by protein A/G. Antibody capture levels were aimed at 200 resonance unit (RU). Serum-derived human C1s (CompTech) or recombinant C1s prepared in EXAMPLE 1 was injected at 50 nM, followed by dissociation. The sensor surface was regenerated in each cycle with 10 mM Glycine-HCl, pH 1.5. […] The ratio of KD 5.8+ to KD 7.4+(“KD 5+/7+”) and that of KD 5.8− to KD 7.4+(“KD 5−/7+”) were calculated. When the KD 5+/7+ or KD 5−/7+ of a variant is larger than that of the parent antibody IPN009VH2-SG4GK/IPN009VK3-SK1, that variant is considered to be “pH”- or “pH and Ca”-dependent, respectively. When binding response in 5(+) buffer and/or in 5(−) buffer of a variant is much lower than that of IPN09VH2/IPN009VK3, that variant is also considered as “pH”- and/or “pH and Ca”-dependent. Therefore, such mutations are effective to generate “pH”- and/or “pH and Ca”-dependent antibody. To further enhance “pH” and/or “pH and Ca” dependency, a combination of histidine mutations was conducted. Antibodies with combinations of histidine mutations were evaluated using Biacore by the method described above.
Turning to B1, the Kd worked out at 9.54 nM and the koff is more than 0.1 s⁻¹.
Take B2: the Kd worked out at 13.8 nM, the koff is 0.092 s⁻¹ and the kon was 6.67e+06 M⁻¹ s⁻¹.
Taken in the same sequence, the figures for B3 were 2.58 nM, 0.00171 s⁻¹ and 665000 M⁻¹ s⁻¹.
In the case of B4, the koff was 0.00635 s⁻¹ and the kon was 664000 M⁻¹ s⁻¹.
In the same order, the values of B5 are 0.132 s⁻¹ and 5.92e+06 M⁻¹ s⁻¹.

A further assay concerns the target T1, human C1s. Put plainly: SPR, Ab captured; pH 5.8, 1.2 mM Ca. As for the experimental part:
as §1
For B1, the Kd is 3.21 nM, the koff amounted to 0.00203 s⁻¹ and the kon turned out to be 632000 M⁻¹ s⁻¹.
Taken in the same sequence, the figures for B2 were 1.83 nM, 0.00131 s⁻¹ and 716000 M⁻¹ s⁻¹.
In the same order, the values of B3 are 0.222 nM, 0.000162 s⁻¹ and 729000 M⁻¹ s⁻¹.
As to B4, the koff was determined as 0.000372 s⁻¹ and the kon came out at 722000 M⁻¹ s⁻¹.
As to B5, the koff is 0.00149 s⁻¹ and the kon is 384000 M⁻¹ s⁻¹.

In another assay the target is T1, human C1s. Put plainly: SPR, Ab captured; pH 7.4, 1.2 mM Ca. As to the method:
as §1
As for B1, the Kd came to 2.68 nM, the koff came out at 0.000898 s⁻¹ and the kon was found to be 335000 M⁻¹ s⁻¹.
Regarding B2, the Kd worked out at 2.18 nM, the koff is 0.000725 s⁻¹ and the kon was found to be 332000 M⁻¹ s⁻¹.
For B3, the equilibrium dissociation constant (Kd) came to 0.549 nM, the koff was 0.000236 s⁻¹ and the kon came to 430000 M⁻¹ s⁻¹.
As for B4, the off-rate constant (koff) stood at 0.00026 s⁻¹ and the kon was 328000 M⁻¹ s⁻¹.
In the same order, the values of B5 are 0.000574 s⁻¹ and 233000 M⁻¹ s⁻¹.

For another assay, the target named is T1, human C1s. Put plainly: SPR; KD pH 5.8 3 uM Ca / KD pH 7.4 1.2 mM Ca. As for the experimental part: as §1
As for B1, the “KD 5(-)/7(+)” value was determined as 3.6.
On the same count and under the same terms, under B2 stands 6.3; under B3, 4.7; under B4, 12.1.
On the same count and under the same terms, next, B5: 9.1.

The next assay concerns the target T1, human C1s. Briefly: SPR; KD pH 5.8 1.2 mM Ca / KD pH 7.4 1.2 mM Ca. As to the method: as §1
Take B1: the “KD 5(+)/7(+)” value came out at 1.2.
On the same count and under the same terms, under B2 stands 0.8.
Same read-out and setting: next, B3: 0.4.
For B4, the “KD 5(+)/7(+)” value amounted to 0.7.
As to B5, the “KD 5(+)/7(+)” value turned out to be 1.6.

The next assay addresses T2, human C1s. Briefly: SPR; KD at pH 5.8 over KD at pH 7.4, both 1.2 mM Ca. As to the method: The binding affinity of all histidine-substituted variants at pH 7.4 and pH 5.8 were determined at 37 degrees C. using Biacore T200 instrument (GE Healthcare). Recombinant Protein A/G (Pierce) was immobilized onto all flow cells of a CM4 sensor chip using amine coupling kit (GE Healthcare). Antibodies and analytes were prepared in 7(+) buffer (20 mM ACES, 150 mM NaCl, 1.2 mM CaCl2, 0.05% Tween 20, 0.005% NaN3, pH 7.4) or 5(+) buffer (20 mM ACES, 150 mM NaCl, 1.2 mM CaCl2), 0.05% Tween 20, 0.005% NaN3, pH 5.8). Each antibody was captured onto the sensor surface by protein A/G. Antibody capture levels were aimed at 200 resonance unit (RU). […] Sensor surface was regenerated each cycle with 10 mM Glycine-HCl pH 1.5. […] An additional dissociation phase at pH 5.8 was integrated immediately after the dissociation phase at pH 7.4. This dissociation rate in 5(+) buffer was determined by processing and fitting data using Scrubber 2.0 (BioLogic Software) curve fitting software. […]
Consider B6, for which the “KD (5.8+)/KD (7.4+)” value worked out at 74.9.
For B7, the “KD (5.8+)/KD (7.4+)” value turned out to be 28.4.

The target of a further assay is T2, human C1s. Put plainly: SPR (Biacore T200, 37C), Ab captured on protein A/G, serum C1s 12.5 and 50 nM; pH 7.4, 1.2 mM Ca. As for the experimental part: (§2) The binding affinity of all histidine-substituted variants at pH 7.4 and pH 5.8 were determined at 37 degrees C. using Biacore T200 instrument (GE Healthcare). Recombinant Protein A/G (Pierce) was immobilized onto all flow cells of a CM4 sensor chip using amine coupling kit (GE Healthcare). Antibodies and analytes were prepared in 7(+) buffer (20 mM ACES, 150 mM NaCl, 1.2 mM CaCl2, 0.05% Tween 20, 0.005% NaN3, pH 7.4) or 5(+) buffer (20 mM ACES, 150 mM NaCl, 1.2 mM CaCl2), 0.05% Tween 20, 0.005% NaN3, pH 5.8). Each antibody was captured onto the sensor surface by protein A/G. Antibody capture levels were aimed at 200 resonance unit (RU). […] Sensor surface was regenerated each cycle with 10 mM Glycine-HCl pH 1.5. […] An additional dissociation phase at pH 5.8 was integrated immediately after the dissociation phase at pH 7.4. This dissociation rate in 5(+) buffer was determined by processing and fitting data using Scrubber 2.0 (BioLogic Software) curve fitting software.
Regarding B6, the koff stood at 0.00052 s⁻¹.
For the molecule B7, the koff was determined as 0.000523 s⁻¹.

A further assay has as its target T2, human C1s. Briefly: SPR; koff (5.8+ of 775+): extra dissociation phase at pH 5.8 (1.2 mM Ca) right after the pH 7.4 dissociation, Scrubber fit. As to the method: as §2
Molecule B6 showed a koff of 0.0282 s⁻¹.
The same measure, in the same setting: next, B7: 0.0151 s⁻¹.
